# Assay results published in the supplement of paper PMC10567573.
# B1: POLD2 addI (peptide)
# chain: CQPISFSGFGAEDDDLGGLGLGPI
# B2: PSMB5 addI (peptide)
# chain: DGWIRVSSDNVADLHEKYSGSTPI
# B3: SNF8 addI (peptide)
# chain: LPALFTDLYSQEITAEEAREALPI
# B4: TRPA1 addI (peptide)
# chain: EQRNSRWNTVLRAVKAKTHHLEPI
# Test: protein stability index of a GFP-peptide fusion (GPS, HEK-293T) (PSI 1-6); higher = more stable
# Conditions: c terminus: native
# 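Also: lentivirally expressed fusion library, cells FACS-sorted into six equal-sized GFP/DsRed ratio bins, PSI computed from sequencing read fractions per bin weighted by bin number.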
protein,measurement,setting,value
B1,protein stability index,parent: NP_006221.1,2.66
B2,protein stability index,parent: NP_002788.1,4.5
B3,protein stability index,parent: NP_009172.2,3.3
B4,protein stability index,parent: NP_015628.1,4.42
